Read-outs that look alike come from different tables or passages of the source.
What was measured:
[1] = pyrazoline bound to SilMA, derived from the named DAT
Experimental: Fluorophores bound to either silk or PEG-DA were generated by dissolving a DAT precursor to a final concentration of 100 μM in water for silk-bound fluorophores and either DIW, IPA or ethyl acetate (EtAc) for PEG-DA-bound fluorophores. These were reacted by exposure to 302 nm light (specs) for 10 minutes under constant stirring. To an opaque black 96-well plate (Corning 3915) was added 3 separate 100 μL aliquots of fluorophore solution. These were measured by a Molecular Devices SpectraMax M2 plate reader, exciting at either 300, 365 or 405 nm and recording spectra from 25 nm […] the excitation wavelength down to 650 nm with a 5 nm resolution.

[2] = DAT precursor, UV-Vis absorption
Experimental: Spectroscopy was performed using a Synergy HT plate reader in with sample Corning Costar UV-transparent 96 well plates (Corning 3635). Initially samples were diluted to 1 mg/mL in either IPA or DIW and a dilution curve was made with each step reducing the concentration by half. The concentration chosen for measurement was the most concentrated sample that had the peak of interest entirely below 1.0 absorption units. When an appropriate concentration was found 100 μL of sample was then loaded into each well with samples loaded in triplicate. If the standard deviation between replicates exceeded 0.05 AU the measurement was repeated with fresh samples.

[3] = literature values of related compounds; cited from earlier work
[4] = Patterned fluorescent films (SilMA or SF/PEG-DA); assay type: physicochemical
Experimental: Multispectral imaging was performed with a Nuance FX multispectral imaging system with a Canon macro lens and illuminated by 365 nm light. Exposure times were varied by sample and were selected by automatic exposure timing in the acquisition software. Images were processed using Nuance software and spectral elements were picked by hand from at least 20 sample locations. Raw processed spectra had large discontinuities introduced by the internal monochromator, which were removed with a custom algorithm.
A glass coverslip (22×22 mm) was placed onto the vacuum chuck of a Laurell WS-650 spin coater. Onto the surface was pipetted 100 μL of silk solution (7.0% w/w silk fibroin, 0.7% w/w polyethylene glycol diacrylate), which was manually spread to cover the entire surface. […] The sample was then water vapor annealed by being placed in a Memmert UN 30 Plus humidity-controlled oven at 45 C and 90% relative humidity. A timer was started once the oven had reached 90% humidity after then drop due to sample addition and allowed to sit in the oven for 5.0 minutes. Once removed the sample was loaded onto the vacuum chuck again and 30 μL of DAT solution (5 mg/mL DAT in isopropyl alcohol) was dropped onto the surface. A combined spreading/evaporation program was run with a single 20 second phase (4000 RPM, 250 RPM/sec). The sample was then covered by a photomask and exposed to 302 nm UV light (Labortechnik UVLMS-38 8 Watt UV multiwavelength lamp) to induce the photoclick reaction. If a multi-emitter film was to be fabricated, then a PDMS isolation layer must be applied if the lower layer is composed of SF/PEG-DA. To form the isolation layer, Sylgard 184 monomer was mixed with curing agent in a 10:1 ratio and 500 μL was applied to the glass slide by spin coating (5 sec, 500 RPM spread, 30 sec 5000 RPM thinning, 500 RPM/sec acceleration). This was cured by heating the slide on a 80 C hotplate for 30 minutes. The subsequent layer could then be applied in an identical manner to the first. If SilMA was used as the lower layer, the isolation layer is not needed and the second layer can be applied directly.
Films were fabricated with a spin-coating process, where either SilMA or a mixture of SF and PEGDA were dropped onto glass coverslips and spun to produce uniform films. Afterwards the films were water vapor annealed to recrystallize them and lock in the position of the polymer(s). Next a solution of the DAT dye in IPA or DI water was drop cast onto the surface, then spun to remove excess solution. This film was then exposed to 302 nm UV light through a quartz photomask or steel shadow mask for 30 seconds. The DAT impregnated films reacted promptly and attained 60% of their full fluorescent brightness in 30 seconds and their maximum brightness in less than 5 minutes (FIG. 21A,B). […]

[5] = Fluorescence titration (pH dependence, pKa) of PEG-DA-bound pyrazolines; assay type: physicochemical
Experimental: A 100 mL beaker was placed on a stir plate and filled with 50 mL of either deionized water or isopropyl alcohol and a magnetic stirrer. Fluorescent pyrazoline bound to PEG was added to a final concentration of 1 mg/mL and stirred until homogenous. An Ocean Optics SR fiber spectrometer was attached to a UV-Vis optical fiber (200-800 nm, 200 μm core diameter) and the fiber was mounted such that it was normal to the surface of the liquid. A 365 nm LED was placed at such that it illuminated the beaker from the side, perpendicular to the orientation of the fiber. If deionized water was used as the solvent, a pH probe was immersed in the liquid as well. The LED was switched on and the spectrometer exposure time was adjusted until the fluorescent peak reached at least 1000 counts or 3 seconds of exposure, whichever occurred first. During capture 5 exposures were averaged and smoothed by a 9-point moving average. […]
To determine the exact pH dependance of the fluorescence transition, fluorescence was monitored during an acid-base titration with a custom optical set-up (FIG. 12). […]
Resulting titrations generally produced either a sigmoidal curve with high and low pH stable regimes (FIG. 14A) or a static, pH independent fluorescence (FIG. 14B). […] The pKa values estimated by fluorescence are generally within their estimated pKa windows, with the exception of the amino derivatives (FIG. 14D). […]

## O=C(O)c1ccc(-c2nnn(-c3ccc(S(=O)(=O)O)cc3)n2)cc1 [DAT-3, 2-(4-sulfophenyl)-5-(4-carboxyphenyl)-2H-tetrazole]
[1]; pH 3
  Emission λmax: 490 nm
  Excitation λmax: 385 nm
[1]; pH 10
  Emission λmax: 460 nm
  Excitation λmax: 375 nm
[2]; peak 1
  Excitation λmax: 279 nm

## Nc1ccc(-c2nnn(-c3ccccc3)n2)cc1 [DAT-8, 5-(4-aminophenyl)-2-phenyl-2H-tetrazole]
[2]; peak 1
  Excitation λmax: 294 nm

## OB(O)O [boric acid]
[3]
  pKa: 9.15

## Nc1cccc(-c2nnn(-c3ccccc3)n2)c1 [DAT-9, 5-(3-aminophenyl)-2-phenyl-2H-tetrazole]
[1]; pH 3
  Emission λmax: 455 nm
  Excitation λmax: 365 nm
[1]; pH 10
  Emission λmax: 460 nm
  Excitation λmax: 375 nm
[4]; PEG-DA/SF films
  fluorescence of resulting pyrazoline in film: visible
[4]; SilMA films
  fluorescence of resulting pyrazoline in film: nearly completely quenched
[2]; peak 1
  Excitation λmax: 271 nm

## CCOC(=O)c1ccc(-n2nnc(-c3ccc(C(=O)O)cc3)n2)cc1 [DAT-2, 2-(4-(ethoxycarbonyl)-phenyl)-5-(4-carboxyphenyl)-2H-tetrazole]
[1]; pH 3
  Emission λmax: 460 nm
  Excitation λmax: 370 nm
[1]; pH 10
  Emission λmax: 455 nm
  Excitation λmax: 350 nm
[2]; peak 1
  Excitation λmax: 265 nm

## O=[N+]([O-])c1ccc(-c2nnn(-c3ccccc3)n2)cc1 [DAT-6, 5-(4-nitrophenyl)-2-phenyl-2H-tetrazole]
[2]; peak 1
  Excitation λmax: 296 nm

## O=[N+]([O-])c1cccc(-c2nnn(-c3ccccc3)n2)c1 [DAT-7, 5-(3-nitrophenyl)-2-phenyl-2H-tetrazole]
[2]; peak 1
  Excitation λmax: 266 nm

## O=C(O)c1ccc(-c2nnn(-c3ccc(O)cc3)n2)cc1 [DAT-4, 2-(4-hydroxyphenyl)-5-(4-carboxyphenyl)-2H-tetrazole]
[1]; pH 3
  Emission λmax: 530 nm
  Excitation λmax: 335 nm
[1]; pH 10
  Emission λmax: 530 nm
  Excitation λmax: 360 nm
[2]; peak 1
  Excitation λmax: 296 nm

## Oc1ccc(-c2nnn(-c3ccccc3)n2)cc1 [DAT-10, 5-(4-hydroxyphenyl)-2-phenyl-2H-tetrazole]
[1]; pH 3
  Emission λmax: 435 nm
[1]; pH 10
  Emission λmax: 435 nm
  Excitation λmax: 355 nm
[4]; PEG-DA/SF films
  fluorescence of resulting pyrazoline in film: visible
[4]; SilMA films
  fluorescence of resulting pyrazoline in film: nearly completely quenched
[2]; peak 1
  Excitation λmax: 253 nm
[2]; peak 2
  Excitation λmax: 281 nm
[2]; peak 3
  Excitation λmax: 300 nm

## O=C(O)c1ccc(-c2nnn(-c3ccc(B(O)O)cc3)n2)cc1 [DAT-5, 2-(4-boronophenyl)-5-(4-carboxyphenyl)-2H-tetrazole]
[1]; pH 3
  Emission λmax: 505 nm
  Excitation λmax: 370 nm
[1]; pH 10
  Emission λmax: 475 nm
  Excitation λmax: 380 nm
[5]
  pH at which highly emissive state is centered: 6
[2]; peak 1
  Excitation λmax: 285 nm

— US20260124324A1, “PHOTOCLICK CHEMISTRY OF SILK FOR TEMPORARY UV TATTOOS” (Trustees of Tufts College, priority 2023, published 2026)
